These results are taken from article PMC4249980.

For this test, the target named is recombinant GST-BNIP3 protein (rat BNIP3) (rat). Description: SDS-PAGE and Western blot; GST-BNIP3 incubated with isolated rat liver mitochondria for 1 hour at 37°C in calcium-free buffer; mitochondrial and supernatant fractions blotted with a BNIP3 antibody; 90 kD band. Background: A western blot detects proteins with antibodies after separation by electrophoresis.

Regarding “recombinant GST-BNIP3 protein (rat BNIP3) (natural protein)”, the stoichiometry N came to 2.

As a reminder, the stoichiometry N is a count of units in the complex or per binding partner.
